The text below walks through data of PMC9508527, “Two-component carnitine monooxygenase from Escherichia coli: functional characterization, inhibition and mutagenesis of the molecular interface” (Bioscience Reports, 2022).

Common to all, as to assay: cell-based or functional assay
Assay [1] concerns the target T1, YeaW variant E330K (E. coli, UniProt P0ABR7 1-374, E330K).
T1 sequence (looked up): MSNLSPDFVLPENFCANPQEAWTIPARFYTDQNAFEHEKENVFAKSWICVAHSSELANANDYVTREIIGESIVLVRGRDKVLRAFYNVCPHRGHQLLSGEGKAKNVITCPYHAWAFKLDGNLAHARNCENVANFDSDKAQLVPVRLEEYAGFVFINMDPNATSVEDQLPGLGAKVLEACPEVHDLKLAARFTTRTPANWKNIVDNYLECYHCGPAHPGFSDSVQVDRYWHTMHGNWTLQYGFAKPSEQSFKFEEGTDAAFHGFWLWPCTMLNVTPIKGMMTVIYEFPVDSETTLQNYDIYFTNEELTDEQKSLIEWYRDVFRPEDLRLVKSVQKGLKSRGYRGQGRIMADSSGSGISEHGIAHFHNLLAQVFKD

Assay [2] has as its target T2, YeaW variant D221S (E. coli, UniProt P0ABR7 1-374, D221S).
T2 sequence (looked up): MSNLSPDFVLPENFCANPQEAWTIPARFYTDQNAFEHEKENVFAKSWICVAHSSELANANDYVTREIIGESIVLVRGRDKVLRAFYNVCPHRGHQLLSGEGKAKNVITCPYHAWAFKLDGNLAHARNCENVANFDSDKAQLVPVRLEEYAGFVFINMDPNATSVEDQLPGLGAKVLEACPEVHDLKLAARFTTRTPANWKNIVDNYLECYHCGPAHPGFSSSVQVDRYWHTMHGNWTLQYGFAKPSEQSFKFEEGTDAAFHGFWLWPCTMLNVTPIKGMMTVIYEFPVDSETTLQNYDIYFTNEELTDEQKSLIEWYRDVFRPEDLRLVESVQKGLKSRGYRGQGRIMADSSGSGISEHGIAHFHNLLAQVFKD

The target of assay [3] is T3, YeaW variant R83Q (E. coli, UniProt P0ABR7 1-374, R83Q).
T3 sequence (looked up): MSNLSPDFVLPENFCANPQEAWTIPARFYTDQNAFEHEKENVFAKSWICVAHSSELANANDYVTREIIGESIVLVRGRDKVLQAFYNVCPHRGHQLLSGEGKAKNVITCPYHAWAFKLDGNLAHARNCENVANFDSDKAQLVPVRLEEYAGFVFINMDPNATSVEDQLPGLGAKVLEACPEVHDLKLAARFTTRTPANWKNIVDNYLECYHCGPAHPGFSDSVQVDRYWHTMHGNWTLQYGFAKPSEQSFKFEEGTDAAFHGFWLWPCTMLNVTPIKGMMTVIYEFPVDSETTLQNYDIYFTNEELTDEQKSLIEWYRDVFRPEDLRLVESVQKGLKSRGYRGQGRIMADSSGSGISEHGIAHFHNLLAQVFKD

In assay [4] the target is T4, YeaW variant K117E (E. coli, UniProt P0ABR7 1-374, K117E).
T4 sequence (looked up): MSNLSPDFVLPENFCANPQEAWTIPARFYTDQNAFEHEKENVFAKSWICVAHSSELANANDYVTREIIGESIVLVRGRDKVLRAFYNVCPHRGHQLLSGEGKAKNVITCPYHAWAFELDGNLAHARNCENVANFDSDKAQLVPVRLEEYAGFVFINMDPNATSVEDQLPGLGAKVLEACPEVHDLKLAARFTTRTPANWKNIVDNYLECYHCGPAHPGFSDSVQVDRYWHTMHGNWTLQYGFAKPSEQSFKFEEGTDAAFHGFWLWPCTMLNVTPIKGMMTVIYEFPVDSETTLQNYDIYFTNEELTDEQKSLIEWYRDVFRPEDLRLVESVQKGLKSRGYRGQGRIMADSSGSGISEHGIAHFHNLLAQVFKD

Assay [5] has as its target T5, YeaW variant D221K (E. coli, UniProt P0ABR7 1-374, D221K).
T5 sequence (looked up): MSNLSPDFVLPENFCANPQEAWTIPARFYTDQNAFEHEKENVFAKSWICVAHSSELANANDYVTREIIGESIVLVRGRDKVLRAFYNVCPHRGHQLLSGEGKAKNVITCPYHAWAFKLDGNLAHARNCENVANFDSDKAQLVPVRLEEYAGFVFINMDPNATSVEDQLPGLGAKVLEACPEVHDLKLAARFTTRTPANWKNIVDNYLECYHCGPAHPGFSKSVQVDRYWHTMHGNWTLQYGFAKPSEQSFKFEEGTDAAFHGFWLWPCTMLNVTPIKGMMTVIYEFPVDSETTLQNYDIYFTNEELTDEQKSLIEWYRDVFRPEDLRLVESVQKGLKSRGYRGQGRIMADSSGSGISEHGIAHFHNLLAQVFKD

The target of assay [6] is T6, YeaW variant K117S (E. coli, UniProt P0ABR7 1-374, K117S).
T6 sequence (looked up): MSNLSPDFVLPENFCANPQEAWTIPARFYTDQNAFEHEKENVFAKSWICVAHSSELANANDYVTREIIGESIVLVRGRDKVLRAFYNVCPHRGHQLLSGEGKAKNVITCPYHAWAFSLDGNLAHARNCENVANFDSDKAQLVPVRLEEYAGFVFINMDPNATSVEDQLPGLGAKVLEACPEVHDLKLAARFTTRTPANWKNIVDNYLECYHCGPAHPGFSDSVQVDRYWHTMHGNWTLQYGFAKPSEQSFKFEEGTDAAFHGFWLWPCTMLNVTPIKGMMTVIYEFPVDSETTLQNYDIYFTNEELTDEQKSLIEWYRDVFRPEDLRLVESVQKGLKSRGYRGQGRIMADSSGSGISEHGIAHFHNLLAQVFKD

Assay [7] deals with T7, YeaW variant K138E (E. coli, UniProt P0ABR7 1-374, K138E).
T7 sequence (looked up): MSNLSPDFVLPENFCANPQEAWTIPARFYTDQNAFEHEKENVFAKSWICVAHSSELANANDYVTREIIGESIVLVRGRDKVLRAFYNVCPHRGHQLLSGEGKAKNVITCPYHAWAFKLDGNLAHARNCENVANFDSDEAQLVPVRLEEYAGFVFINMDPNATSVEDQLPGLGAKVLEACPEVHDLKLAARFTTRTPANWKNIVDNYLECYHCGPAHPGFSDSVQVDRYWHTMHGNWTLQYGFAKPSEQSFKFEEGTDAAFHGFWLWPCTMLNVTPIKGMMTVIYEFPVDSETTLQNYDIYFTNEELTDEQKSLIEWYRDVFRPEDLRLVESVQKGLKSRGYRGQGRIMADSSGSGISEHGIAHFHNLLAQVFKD

B1: YeaX, reductase component of carnitine monooxygenase from E. coli (enzyme, UniProt P76254 1-321, looked up)
chain: MSDYQMFEVQVSQVEPLTEQVKRFTLVATDGKPLPAFTGGSHVIVQMSDGDNQYSNAYSLLSSPHDTSCYQIAVRLEENSRGGSRFLHQQVKVGDRLTISTPNNLFALIPSARKHLFIAGGIGITPFLSHMAELQHSDVDWQLHYCSRNPESCAFRDELVQHPQAEKVHLHHSSTGTRLELARLLADIEPGTHVYTCGPEALIEAVRSEAARLDIAADTLHFEQFAIEDKTGDAFTLVLARSGKEFVVPEEMTILQVIENNKAAKVECLCREGVCGTCETAILEGEADHRDQYFSDEERASQQSMLICCSRAKGKRLVLDL
Take B1: the “L-carnitine depletion activity (wild type = 100%)” value in assay [1] was found to be 55%; in assay [2] it was 91%; in assay [3], 51%; in assay [4] it was 63%; in assay [5], 81%; in assay [6], 122%. For the same molecule, the “L-carnitine depletion activity (wild type = 100%)” value in assay [7] came to 100%. Besides, the “O2 depletion activity (wild type = 100%)” value in assay [1] was found to be 67%; in assay [2] it was 99%; in assay [3], 59%; in assay [4], 75%; in assay [5] it was 76%; in assay [6] it was 109%. Also, the “O2 depletion activity (wild type = 100%)” value in assay [7] amounted to 102%.
